Experiment: yeast display, Sf9 membrane polyspecificity reagent, FACS + sequencing; frameworks hold sequencing errors
Method in brief: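 A synthetic nanobody library was expressed on Saccharomyces cerevisiae BJ5465 by galactose induction for 36–48 hours. The library was stained for 1 hour at 4 °C with 10% biotinylated, detergent-solubilized Sf9 membrane reagent and enriched with streptavidin microbeads before FACS. Low and high (top ~1%) gates were set on anti-HA fluorescence for expression and streptavidin fluorescence for reagent binding, and each polyreactivity label reflects the gate of origin.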

Sequence	polyreactivity (PSR sort gate)
QVHLVDSGGGLVQAGGSLRLSCAASGRIFSPYAMGWYRQAPGKERELVASINYSGGSTYADSVKGRFTISRDNAKNTVYLQMNSLKPEDTAVYYCAAEDIGRYYRLDYWGQGTQVSVSS	low polyreactivity
QVHLVDSGGGLVQAGGSLRLSCAASGRTFGRNAMGWYRQAPGKERELVAAISLRGGRTYYADSVKGRFTISRDNAKNTVYLQMNSLKPEDTAVYYCAAYGYRDYYFWGQGTQVTVSS	high polyreactivity
QVHLVDSGGGLVQAGGSLRLSCAASGRTFYSYAMGWYRQAPGKERELVAAINSGGDTYYADSVKGRFTISRDNAKNSVYLQMNSLKPEDTAVYYCAADYYWEMDSWGQGTQVTVSS	low polyreactivity
QVHLVDSGGGLVQAGGSLRLSCAASGRTFYYYAMGWYRQAHGKERELVATISRTGTTNYADSVKGRFTISRDNAKNTVYLQMNSLKPEDTAVYYCAAERATPWPKNDYWGQGTQVTVSS	high polyreactivity
QVHLVDSGGGLVQAGGSLRLSCAASGSIISVYFMEWYRQAPGKERELVASITSGASTNYADSVKGRFTISRDNAKNTVYLQINSLKPEDTAVYYCCARDWYDGFYYWGQGTQVTVSS	low polyreactivity
QVHLVDSGGGLVQAGGSLRLSCAASGSTFDYNAMGWYRQAPGQESELVAAISWRGGGTYYADSVKGRFTISRDNAKTTVYLQMNSLKPEDTAVYYCAASAYKGTGAEFDYWRQGTQVTVSS	low polyreactivity
QVHLVDSGGGLVQARGSLRLSCAASGLTFRYYTMAWYRQAPGKERELVAAISSSGGSTYYADSVKGRFTISRDNAKNTVYLQMNSLKPEDTAVYYCADSASLRHVYWGQGTQVTVSS	high polyreactivity
QVHLVDSGVGLDQAGGILRLSCAASGSTFGFYALGWYRQSPGKERELVAAINSTGGSTYYADSVKGRFTISRDNAKNTVYLQMNSLKPEDTAVYYCNVDLYSLYDWGQGTQVTVSS	high polyreactivity
QVHLVDSGVGLVQAGGSLRLSCAASGYTFVPYAMGWYRQAPGKERELVAAISSSGGSTYYADAVKGRFTISRDNAKNTVYLQMNSRKPEDSAVYYWAADYRTGQFYAGFDYWGQGTQVTVSS	high polyreactivity
QVHLVESAVGLVQAGGSLRLSCAASASTFPSYAMGWYRQAPGKERELVAAINSGGGTNYADSVKGRFTISRDNAKNTVYLQMNSLKPEDTAVYYCAKSRYDYTKTEGGYWGQGTQVTVSS	low polyreactivity
QVHLVESGGALVQAGGSLRLSCAASAYTFSYYAMGWYRQAPGKEMELVAAITSTGSTYYADSVKGRFTISRDNAKNTVYLQMNSLKPEDTAVYYCNVDDATVGPVDYWGQGTQVTVSS	low polyreactivity
QVHLVESGGCLVQAGGSLRLSCAASGITFRWYAMGWYILAPGKERELVSSIDGRGASTYADSVKGRFTSSRDNAKNTVYLQMNSLKPEDSAVYYCAVAQVRVSYLWVRKFYYWGQGTQVTVSS	high polyreactivity
QVHLVESGGCLVQAGGSLRLSCAASGNSFVSNAMGWYIQAPGKERELVAAIDSGGSTNYADSVKGRFTISRDNAKNTVYLQMNSLKPVDTAVYYCNRTSVYYYYWGQGTQVTVSS	low polyreactivity
QVHLVESGGCLVQAGGSLRLSCAASGRIFGVYVMGWYRQARGTEREFVAAITWSGGRTYYADSVKGRFTISRDNAKNTVYFQMNSLKPQDTAVYYCAARRSYEYVYWGKGTQVTVSS	high polyreactivity
QVHLVESGGCLVQAGGSLRLSCAAYGSIFPKYALGWYRQAPGKERELVATISYRGGRTYYADSVKRRFTISRDNAKNTVYLQMNSLKPEDTAVYYWNAHSQAKLDYWGQGTQVTVSS	low polyreactivity
QVHLVESGGGIVQAGGSLRLSCAASGRTFRKYAMGWYRQAPGKEMELVAAISWSGGSTYYANSVKGRFTISRDHAKNTVYLQLNSLIPEDPAVYYCAATAYYYYDYDYWGQGTQVTVSS	low polyreactivity
QVHLVESGGGIVQAGGSLRLSCAASGSIFKKNAMGWSRQAPGKERELVAAITLSSSDTYYADSVKGRFTISRDNAKNTVYLQMNSLKPEDTAVYYCAAKRTRDMDYWGQGTQVTVSS	high polyreactivity
QVHLVESGGGIVQAGGSLRLSCAASGSIFKYYPMGWYRQAAGKERELVAVISSGGRTYYADSVKGRFTISRDNAKNTVYLQMNSLKPEDTAVYYCAVYRTFRYRYDSWGQGTQVTVSS	high polyreactivity
QVHLVESGGGIVQAGGSLRLSSAATGRTFPYNAMGWYRQAPGKERELVAAISSGGSTNYADSVKGRFTISRDNAKNTVYLQMNSLKPEDTAVYYCATKYQRRPYRYYYWGQGTQVTVSS	low polyreactivity
QVHLVESGGGLDQAGASLRITSAATGFTFRQNVKRWYRQAPGKESEFVATITWSGGRTSYADSVKGRFTISRDNAKNTVYLQMNSLKPEDTAVYYCAARFFSYSQYAYNYWGQGTQVTVSS	high polyreactivity
QVHLVESGGGLFQAGGSLRISCSASGSIFARNAMGWYRQAPGKERELVAAISRSGGSTYYADSVKGRFTISRDNAMMTVSFQMNSLKPEDTAVYYCAAVRRRTVGYNYWGQGTQVTVSS	high polyreactivity
QVHLVESGGGLFQAGGSLRLRCAASGFTFASNAMGWYIQAPGKERELVAAITRSGGSTFYADSVKGRFTISRDNAKNTVYLQMKSLKPEDTAVYYCNAAPYGFGWRVRAFTGYDYWGQGTQVTVSS	low polyreactivity

Sequence	polyreactivity (PSR sort gate)
QVHLVESGGGLFQAVLSLRLSCAASGFIFQRYPMGWYRQAPGKESELVAAISSGGGTNYADSVKGRFTISRDNAKKTVYLQLNSLIPEDTAVYYCARPYYVYSQSSDYWGQGTQVTVSS	low polyreactivity
QVHLVESGGGLGQAGGSLRLSCAASGIIFRLYAKGWYIPAPGKERELVAAISRRGDSTYYADSVKGRFTISRDNAKNTVYLQMIILKPEDTAVYYCAAERWGDYGYWGQGTQVTVSS	high polyreactivity
QVHLVESGGGLLQAGGSLRLSCAASGSIFAYNAMGWYREAPRKERELVASITNGGSTYYADSVKGRFTISRYNAKNSVYLQMKSLKPEDTAVYYCNTDFDGYSVGYDGYWGQGTQVTVSA	low polyreactivity
QVHLVESGGGLVEAAVSLRLSYAASGITVKSYAMGSYRQAPGKERELVADISSSGGTTYYADYVKGRFTISRDNAKNTVYLKMKSLKAEHTAVYYCNAKWGRYFSGGYGDEYDYWGQGTQVTVSS	high polyreactivity
QVHLVESGGGLVHAGGRLRLSCAASGRIFGLNAMGWYRQAPGKERELVAAIDIIGGSTYYADSVKGRFTISRDNAKNTVYLQMNSLIPEDTAVFYCAAEADFWRFVEFDYWGQGTQVTVSS	low polyreactivity
QVHLVESGGGLVNAGGSLRLSCAASGRIFSGYAMGWYRQAPGKERELVAAITSVGSTNNADSVKGRFTISRDNAKNTVYLQMNSLKPEDTAVYYCAARGSYARGYDYWGQGTQVTVSS	high polyreactivity
QVHLVESGGGLVQAAGSLRLSCAASGSTFKYNAMGWYRQAPGKERELVAAITRGGRTYYADSVKGRFTISRDNAKNTVYLQMNSLKPEDTEVYYCAAAIPSGTFYAGAYYYWGQGTQVTVSS	high polyreactivity
QVHLVESGGGLVQAGASLRLSCAASGFTFGVNAMGWSRQAPGKERELVAVITSGGNTYYADSVKGRFTISRDNAKNTVYLHMNSLNPEDTAVYYCAAYGRASWERDYWGKGTQVTVSS	low polyreactivity
QVHLVESGGGLVQAGASLRLSCAASGRIFYKYAMGWYRQAPGKERELVAAISYRGGSTYYADSVKGRFTISRDNAKNSVYLQMKSLKPEDNAVYYCAADRWYYSVSTKSDSWGQGTQVTVSS	high polyreactivity
QVHLVESGGGLVQAGCSLRLSCAASGSIFSYYAMGWYRQAPGKERELVAAISVSGGNYADSVKGRFTISRDNAKNTVYLQMNSLKPEDTAVYYCAALNVYGSADVTTLEMDYWGQGTQVTVSS	low polyreactivity
QVHLVESGGGLVQAGGILRLRSAASGSTVYGYAMGWYRQAPGKERELVAAITRSGGSTYYADSVKGRFTISRDNATNKVYLQMNSQKPEDTEFYYCNKYGYKGGDGYDYWGQRTQVTVSS	high polyreactivity
QVHLVESGGGLVQAGGILRLSCAASGLTFRYYTMGWYRQEPGKERELVASITIRGGSTYYADSVKGRFTISRDNAKNTVYLQMNSLKPEDTAVYYCNTRYGFSFGYWGQGTQVTVSS	high polyreactivity
QVHLVESGGGLVQAGGILRLSCAASMVWYRQAPGKERELVAAINTRTGTTYYADSVKGRFTISRDNAKNTVYLQMNSLKPEDTAVYYCAARTYRTRYYYWGQGTQVTVSS	high polyreactivity
QVHLVESGGGLVQAGGRLRLSCAASGSIFDRYAMGWYRQAPGKEREFVARIRSSTGGTDYADSVKGRFTISRDNAKNTVYLQMNILKPEDTAVYYCAASSSHYYYWIQGSYWGRGVYWGQGSQVTVSS	high polyreactivity
QVHLVESGGGLVQAGGRLRLSCAASGSIFRLYAMGWYRQAPGKERELVARITTGGSTNYADSVKGRFTISLDNAKNTVYFQMNSLKPEDTAVYYCNGGVLVTAQMGWQKYSYWGQGSQVTVSS	high polyreactivity
QVHLVESGGGLVQAGGSHRLSCASSGFIFYFYTMGWYRQAPGKERELVAGITWLDGSTYYADSVKGRFTISRDNAKNTVYLQMNSLKPEDTAVYYCAVDYDLVVSPYYYWGQGTQVTVSS	low polyreactivity
QVHLVESGGGLVQAGGSIRLSCAASGSTFLVYAMGWYRPAPGKGRELVAAISRSGSSTYYADSVKGRFTISRDNAMNTVYLQMIRLKPEDTAVYYCNAYSQYWLGNNYWGQGTQVTVSS	high polyreactivity
QVHLVESGGGLVQAGGSLRISCAASGFTFRKYSMGWYRQAPGKERELVAGITSGGSTNNADSVKGRFTISRDNAKNTVYLQMNSLKPEDTAVYYCNAARYYAYIGDYWGQCTQVTVSS	high polyreactivity
QVHLVESGGGLVQAGGSLRISCAASGRIFWWYAMGWYRQAPGKERELVAAISTGSRTYYADSVKGRFTISRDNAKNTVFLQMNRLKPEDTAVYYCVADGLYSVSRSSIFEYWGHGTQVTVSS	low polyreactivity
QVHLVESGGGLVQAGGSLRISCAASGRTFQVYAMGRYRQAPGKERELVAAISLTGGGTYYADSVKGRFTISRDYANNTVYLQMNSLKPEDTAVYYCAVRRRTHLGFLYEYWGQGTQVTVSS	high polyreactivity
QVHLVESGGGLVQAGGSLRLICAASGSIFSAYALGWYRQAPGKERELVAAITWRGGSTYYADSVKGRFTISRDNAKNTVYLQMNSLKPEDTAVYYCAKYYYYLRSARKYDYWGQGTQVTVSS	high polyreactivity
